In US20080166345A1, “MEDICAMENTS COMPRISING GENE RECOMBINANT ANTIBODY AGAINST GANGLIOSIDE GD3” (KYOWA HAKKO KOGYO CO., LTD., priority 2001, published 2008):

Assays:
[1] = system: human melanoma culture cell line G-361; assay: Reactivity with human cancer cell (immunofluorescent method); type: binding; details: antibody 5 μg/ml; FIG. 23
Method: (§1) Reactivity of purified anti-GD3 CDR-grafted antibodies KM8869, KM8870 and KM8871 with human cancer cells was measured as follows. That is, 1×10^6 cells of each of human melanoma culture cell lines G-361 (ATCC CRL 1424) and SK-MEL-28 (ATCC HTB72) were suspended in PBS, put into microtubes and centrifuged (2,000 rpm for 2 minutes), and the thus washed cells were stirred after adding 50 μl of the anti-GD3 chimeric antibody KM871 or the anti-GD3 CDR-grafted antibody, KM8869, KM8870 or KM8871 (a solution adjusted to 5 μg/ml with 1% BSA-PBS) and then allowed to react at 4° C. for 1 hour. After the reaction, followed by centrifugation three times with PBS for washing, 20 μl of rabbit anti-human IgG (H+L) F(ab′)2 solution (manufactured by Wako Pure chemical Industries, used by diluting 30 folds with 1% BSA-PBS) fluorescence-labeled with fluorescein isothiocyanate (hereinafter referred to as “FITC”) was added thereto, followed by stirring, and then the reaction was carried out at 4° C. for 1 hour. After the reaction, followed by centrifugation three times with PBS for washing, the cells were again suspended in PBS to carry out the analysis using a flow cytometer EPICS Elite (manufactured by COULTER). As a control, the analysis was carried out by the same procedure without adding antibodies.

[2] = system: human melanoma culture cell line SK-MEL-28; assay: as above; type: binding; details: antibody 5 μg/ml; FIG. 23
Method: as §1

[3] = system: human melanoma culture cell line G-361; assay: In vitro cytotoxic activity (ADCC activity), 51Cr release; type: cell-based; details: FIG. 25
Method: (§2) Each of human melanoma culture cell lines, G-361 (ATCC CRL 1424) and SK-MEL-28 (ATCC HTB72), was cultured in RPMI1640-FBS(10) medium and adjusted to 1×10^6 cells, and the cells were isotope-labeled by adding 1.85 MBq equivalent of a radioactive substance Na2^51CrO4 and carrying out the reaction at 37° C. for 1 hour. After the reaction, the cells were washed three times by their suspension in RPMI1640-FBS(10) medium and centrifugation, re-suspended in the medium and then incubated in ice at 4° C. for 30 minutes to thereby spontaneously release the radioactive substance. After centrifugation, the cells were adjusted to 2×10^5 cells/ml by adding 5 ml of RPMI1640-FBS(10) medium and used as the target cell suspension.
(§3) Healthy human vein blood (50 ml) was collected, and 0.5 ml of heparin sodium (manufactured by Takeda Pharmaceutical) was gently added thereto. The resulting mixture was centrifuged (1,500 to 1,800×g for 30 minutes) using Polymorphprep (manufactured by Nycomed Pharma AS) in accordance with the manufacturers instructions to separate a mononuclear cell layer. […]
(§4) Into each well of a 96 well U bottom plate (manufactured by Falcon), 50 μl of the target cell suspension prepared in “a.” was dispensed (1×10^4 cells/well). […] After the reaction, the plate was centrifuged and the amount of ^51Cr in the supernatant was measured by a γ-counter. The amount of the spontaneously dissociated ^51Cr was calculated by carrying out the same procedure using the medium alone instead of the effector cell suspension and antibody solution and measuring the amount of ^51Cr in the supernatant. The amount of the total dissociated ^51Cr was calculated by carrying out the same procedure by adding the medium alone instead of the antibody solution, and 5 N sodium hydroxide instead of the effector cell suspension, and measuring the amount of ^51Cr in the supernatant. The ADCC activity was calculated by the following equation.

[4] = system: human melanoma culture cell line SK-MEL-28; assay: as above; type: cell-based; details: antibody 0.05 to 50 μg/ml, effector:target 50:1; FIG. 25
Method: as §2, §3, §4

B1: KM871: anti-GD3 human chimeric antibody; VH SEQ ID NO:49, VL SEQ ID NO:50, human IgG1 and κ C regions (antibody, listed as Mus musculus, V domains shown)
VH: EVTLVESGGDFVKPGGSLKVSCAASGFAFSHYAMSWVRQTPAKRLEWVAYISSGGSGTYYSDSVKGRFTISRDNAKNTLYLQMRSLRSEDSAMYFCTRVKLGTYYFDSWGQGTTLTVSS
VL: DIQMTQTASSLPASLGDRVTISCSASQDISNYLNWYQQKPDGTVKLLIFYSSNLHSGVPSRFSGGGSGTDYSLTISNLEPEDIATYFCHQYSKLPWTFGGGTKLEIKR
modifications: human IgG1 and kappa constant regions
- reactivity with cells [1]: showed the reactivity
- reactivity with cells [2]: showed the reactivity
- difference in ADCC cytotoxic activity among KM871, KM8869, KM8870 and KM8871 ([3]; G-361 and SK-MEL-28): difference in the cytotoxic activity was not found
- ADCC activity ([3]; antibody 0.05 to 50 μg/ml, effector:target 50:1): strong ADCC activity
- ADCC activity [4]: strong ADCC activity
